Patent publication US9296811B2, “Methods for treating a tumor using an antibody that specifically binds HMW-MAA” (University of Pittsburgh—Of the Commonwealth System of …, priority 2010, dated 2016)
Entries after “also recorded” stand apart in the source; their conditions may differ.

Experiments:
[1] = tested on: melanoma cell lines (Colo38, M21, SK-MEL-37, MV3, 1520); test: MTT cell growth assay, vemurafenib and C21; format: cell-based, human
V600E mutated BRAF = V600E mutated BRAF (Homo sapiens, UniProt P15056, V600E); conditions: cited from earlier work
[2] = tested on: normal human organ tissues; test: IHC staining of normal human organ tissue microarray with C21 (cross-reactivity); format: binding; conditions: for IHC Result: normal human tissue, C21 4 μg/mL
[3] = tested on: human melanocytic lesions; test: Immunohistochemical staining of frozen sections of human melanocytic lesions with C21; format: binding; conditions: benign pigmented nevus, primary melanoma, metastatic melanoma
Description: FIG. 6A-6F. Digital images of immunohistochemical staining of frozen sections of human melanocytic lesions with C21.

CSPG4 = molecular target: T1, CSPG4 (Homo sapiens, UniProt Q6UVK1); test: FACS reactivity of C21 with established and patient-derived melanoma cell lines; format: binding; conditions: established or patient-derived lines containing BRAF^V600E or BRAF^WT
T1 construct: Representative FACS analysis of CSPG4 expression by melanoma cell lines using CSPG4-specific C21 and PE-conjugated anti-human IgG; endogenous in cells; host or cells: established (1520, 836, Colo38, M21, MEL526, MV3, SK-MEL-28, SK-MEL-37, WM1158) and patient-derived (Mel-JR, Mel-KD, pre/post vemurafenib) human melanoma cell lines
Description: FIG. 5A to 5B. […] (FIG. 5A) Representative FACS analysis of CSPG4 expression by melanoma cell lines using CSPG4-specific C21 and PE-conjugated anti-human IgG. 119 was used as an isotype control. (FIG. 5B) A panel of melanoma cell lines bound by C21. *Percentage of CSPG4^+ cells. MFI: mean fluorescence intensity. The top section (1520, 836, Colo38, M21, MEL526, MV3, KS-MEL-28, SK-MEL-37, and WM1158) are established melanoma cell lines; The bottom section (MeI-JR(pre), MEL-JR(post), Mel-KD(pre), and Mel-KD(post)) are patient-derived human melanoma cell lines; pre: before vemurafenib (PLX4032) treatment, post: after vemurafenib (PLX4032) treatment.
A fully human mAb, scFc-FcC21 was produced by combining the HMW-MAA (CSPG4)-specific single chain of variable regions of heavy and light chains (scFv) to a Fc portion of IgG1 at the DNA level.

[4] = tested on: BRAF^V600E and BRAF^WT melanoma cell; test: MTT growth inhibition of melanoma cell lines by C21; format: cell-based, human; conditions: BRAF^V600E and BRAF^WT cells, 3, 5 days
Protocol: FIG. 7. […] The indicated cells were seeded in triplicate in 96-well plates (2.5×10^3/well) and treated for 3, 5 days with C21 and 119 in RPMI 1640/1% FCS. Living cells were detected using MTT assays. The results are expressed as percent inhibition of cell growth, with untreated cells representing 100%. Mean values±SD were calculated from two independent experiments.

[5] = tested on: human melanoma BRAF(V600E)/CSPG4^+ xenografts; test: Survival of mice bearing M21 xenografts, vemurafenib and C21; format: in vivo; conditions: M21 xenograft; vemurafenib 25 mg/kg orally twice a day for 13 days; C21 1 mg/mouse i.v. twice a week for 2 weeks; vs vemurafenib alone or vemurafenib+119
Protocol: FIG. 11. Improved response duration for vemurafenib in vivo. Human melanoma M21^BRAF(V600E)/CSPG4+ cells (2×10^6/mouse) were injected subcutaneously (s.c.) into 20 mice (day 0). By day 7, tumors were measurable, and mice were divided into four groups (5 mice/group) using a stratified randomization strategy. Mice received either vemurafenib, vemurafenib+C21, vemurafenib+119, or were untreated. Vemurafenib was delivered orally (25 mg/kg) twice a day for 13 days, while C21 or 119 were injected i.v. (1 mg/mouse) twice a week for 2 weeks. All mice were monitored for survival.

melanoma cells = test: Prevention/delay of acquired resistance of melanoma cells to vemurafenib in vitro; format: cell-based, human
Protocol: FIG. 13. Prevention/delay of acquired resistance of melanoma cells to vemurafenib. Melanoma cells were seeded in 6-well plates (2.5×10^4 cells/well) containing 2 ml/well RPMI 1640/10% FCS. […] Cells received fresh growth medium every 4 days containing the appropriate treatment concentrations, for 28 days. Cells in randomly selected fields were photographed at different timepoints using a Zeiss Inverted Fluorescence Microscope
In addition, the results presented in FIG. 13 evidences that treatment with C21 delayed resistance to vemurafenib up to 28 days in vitro, at which point the rate of cell growth was unaffected by the presence or absence of vemurafenib (10 μM) in the absence of C21.

EGFR and PDGFRα = test: Activation of EGFR and PDGFRα in melanoma cells after C21; format: cell-based, human; conditions: acquired resistance to BRAF inhibitor

V600E mutated BRAF, sequence (P15056 whole entry V600E): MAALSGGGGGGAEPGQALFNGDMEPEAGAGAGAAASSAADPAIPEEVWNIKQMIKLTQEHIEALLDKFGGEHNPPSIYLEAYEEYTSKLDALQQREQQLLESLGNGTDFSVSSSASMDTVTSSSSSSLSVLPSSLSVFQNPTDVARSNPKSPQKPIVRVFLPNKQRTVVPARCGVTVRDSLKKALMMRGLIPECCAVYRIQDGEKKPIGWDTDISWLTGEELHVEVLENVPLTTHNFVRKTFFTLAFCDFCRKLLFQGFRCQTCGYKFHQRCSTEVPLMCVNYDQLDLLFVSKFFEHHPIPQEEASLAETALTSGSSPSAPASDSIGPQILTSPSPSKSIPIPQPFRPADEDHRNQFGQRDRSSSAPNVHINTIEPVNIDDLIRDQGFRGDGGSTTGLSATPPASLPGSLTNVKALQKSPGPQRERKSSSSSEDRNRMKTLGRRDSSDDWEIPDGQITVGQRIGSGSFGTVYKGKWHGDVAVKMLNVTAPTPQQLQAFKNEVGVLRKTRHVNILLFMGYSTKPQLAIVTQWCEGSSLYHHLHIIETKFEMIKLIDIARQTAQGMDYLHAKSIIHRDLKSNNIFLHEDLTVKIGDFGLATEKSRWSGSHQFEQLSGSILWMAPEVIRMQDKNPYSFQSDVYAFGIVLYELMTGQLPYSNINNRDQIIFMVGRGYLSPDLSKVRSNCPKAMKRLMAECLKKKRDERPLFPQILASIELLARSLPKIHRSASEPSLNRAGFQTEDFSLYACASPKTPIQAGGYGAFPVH
T1 sequence (Q6UVK1 30-2322): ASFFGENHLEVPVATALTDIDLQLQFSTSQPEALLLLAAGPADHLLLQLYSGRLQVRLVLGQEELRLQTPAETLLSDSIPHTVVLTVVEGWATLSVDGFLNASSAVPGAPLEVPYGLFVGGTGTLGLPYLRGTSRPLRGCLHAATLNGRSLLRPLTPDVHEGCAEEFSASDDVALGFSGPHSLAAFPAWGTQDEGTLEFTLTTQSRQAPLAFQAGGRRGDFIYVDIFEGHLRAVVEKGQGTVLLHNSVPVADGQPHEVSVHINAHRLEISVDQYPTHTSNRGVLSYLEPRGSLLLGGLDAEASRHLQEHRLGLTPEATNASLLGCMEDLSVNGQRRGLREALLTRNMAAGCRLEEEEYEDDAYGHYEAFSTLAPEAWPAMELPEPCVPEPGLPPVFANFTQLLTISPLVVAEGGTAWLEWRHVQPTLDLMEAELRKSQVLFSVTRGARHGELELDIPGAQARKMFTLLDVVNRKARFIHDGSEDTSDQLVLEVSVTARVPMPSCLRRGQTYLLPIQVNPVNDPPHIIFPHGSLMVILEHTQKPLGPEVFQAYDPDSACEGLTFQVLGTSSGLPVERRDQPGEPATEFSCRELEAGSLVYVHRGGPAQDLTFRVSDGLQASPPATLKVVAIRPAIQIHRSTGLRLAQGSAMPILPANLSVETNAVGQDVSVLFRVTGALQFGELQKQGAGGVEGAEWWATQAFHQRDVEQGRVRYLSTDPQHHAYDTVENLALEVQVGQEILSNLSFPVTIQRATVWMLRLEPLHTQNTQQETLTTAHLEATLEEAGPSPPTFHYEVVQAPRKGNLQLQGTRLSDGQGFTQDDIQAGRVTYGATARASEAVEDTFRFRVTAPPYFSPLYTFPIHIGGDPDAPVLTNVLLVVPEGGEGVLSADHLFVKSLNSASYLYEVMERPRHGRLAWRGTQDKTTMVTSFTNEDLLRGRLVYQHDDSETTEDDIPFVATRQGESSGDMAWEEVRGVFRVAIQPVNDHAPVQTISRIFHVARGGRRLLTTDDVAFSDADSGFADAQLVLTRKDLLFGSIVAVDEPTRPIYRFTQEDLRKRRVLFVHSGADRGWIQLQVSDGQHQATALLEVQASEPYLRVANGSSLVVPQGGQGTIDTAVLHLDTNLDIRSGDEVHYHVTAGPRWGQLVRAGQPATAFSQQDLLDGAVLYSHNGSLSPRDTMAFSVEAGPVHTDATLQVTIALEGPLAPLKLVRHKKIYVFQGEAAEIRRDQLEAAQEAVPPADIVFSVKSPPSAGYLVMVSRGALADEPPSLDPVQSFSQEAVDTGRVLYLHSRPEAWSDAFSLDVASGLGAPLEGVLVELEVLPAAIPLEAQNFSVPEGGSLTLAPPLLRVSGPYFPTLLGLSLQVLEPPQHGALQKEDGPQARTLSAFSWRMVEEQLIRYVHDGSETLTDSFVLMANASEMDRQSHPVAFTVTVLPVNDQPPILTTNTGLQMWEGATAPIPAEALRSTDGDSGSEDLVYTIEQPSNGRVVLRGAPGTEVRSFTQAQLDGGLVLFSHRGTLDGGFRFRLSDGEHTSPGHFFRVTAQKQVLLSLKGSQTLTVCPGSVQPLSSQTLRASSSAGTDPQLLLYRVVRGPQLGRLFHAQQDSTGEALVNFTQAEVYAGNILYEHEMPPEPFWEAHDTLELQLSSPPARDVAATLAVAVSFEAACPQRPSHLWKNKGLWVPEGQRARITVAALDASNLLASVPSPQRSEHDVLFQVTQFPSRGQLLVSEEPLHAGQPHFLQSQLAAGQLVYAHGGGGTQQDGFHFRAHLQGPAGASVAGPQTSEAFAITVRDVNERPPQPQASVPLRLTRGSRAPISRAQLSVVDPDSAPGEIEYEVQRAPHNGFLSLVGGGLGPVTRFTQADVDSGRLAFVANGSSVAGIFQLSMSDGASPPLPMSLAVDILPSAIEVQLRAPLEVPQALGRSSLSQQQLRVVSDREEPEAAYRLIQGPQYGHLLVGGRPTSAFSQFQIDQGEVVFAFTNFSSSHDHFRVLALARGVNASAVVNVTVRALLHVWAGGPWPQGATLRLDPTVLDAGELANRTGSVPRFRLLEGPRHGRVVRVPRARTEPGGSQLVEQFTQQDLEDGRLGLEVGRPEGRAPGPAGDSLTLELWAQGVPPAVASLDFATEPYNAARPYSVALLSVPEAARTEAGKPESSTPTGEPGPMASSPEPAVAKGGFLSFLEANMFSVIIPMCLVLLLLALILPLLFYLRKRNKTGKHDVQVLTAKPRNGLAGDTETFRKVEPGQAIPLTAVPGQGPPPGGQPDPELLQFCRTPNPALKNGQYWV

CCCS(=O)(=O)Nc1ccc(F)c(C(=O)c2c[nH]c3ncc(-c4ccc(Cl)cc4)cc23)c1F [vemurafenib, Vemurafenib]
cell growth ([1]; BRAF^WT MV3 cells, vemurafenib 500 nM): did not affect
response rate (V600E mutated BRAF; 32 BRAF mutated advanced melanoma patients, phase II study (Flaherty et al 2010)): 70%
tumor regression and overall survival (V600E mutated BRAF; Phase I clinical trials, advanced melanoma patients with the V600E BRAF mutation): effective in promoting tumor regression and increasing overall survival
median duration of response (V600E mutated BRAF; melanoma patients treated with BRAF selective inhibitor): ~8 months

B1: C21: fully human mAb: HMW-MAA (CSPG4)-specific scFv combined to a Fc portion of IgG1; SEQ ID NOs: 3 and 4 (antibody, listed as Homo sapiens, V domains shown)
VH: QVQLVQSGAEVKKPGSSVKVSCKASGGTFSSYAISWVRQAPGQGLEWMGGIIPIFGTANYAQKFQGRVTITADESTSTAYMELSSLRSDDTAVYYCARALDPITFDSWGQGTLVTVSR
VL: SELTQDPAVSVALGQTVRITCQGDSLRSYYASWYQQKPGQAPVLVIYGKNNRPSGIPDRFSGSSSGNTASLTITGAQAEDEADYYCNSRDSSGNHVVFGGGTKLTVLGRS
IHC Result ([2]; Cerebellum): negative
IHC Result ([2]; Cerebrum): negative
IHC Result ([2]; Colon): negative
IHC Result ([2]; Esophagus): negative
recognition of a panel of normal human organ tissues ([2]; FIG. 6, Table 2): not a panel of normal human organ tissues
IHC Result ([2]; Heart): negative
IHC Result ([2]; Kidney): negative
IHC Result ([2]; Liver): negative
IHC Result ([2]; Lung): negative
IHC Result ([2]; Lymph node): negative
IHC Result ([2]; Ovary): negative
IHC Result ([2]; Pancreas): negative
IHC Result ([2]; Peripheral nerve): negative
IHC Result ([2]; Pituitary gland): negative
IHC Result ([2]; Placenta): negative
IHC Result ([2]; Prostate): negative
IHC Result ([2]; Salivary gland): negative
IHC Result ([2]; Skeletal muscle): negative
IHC Result ([2]; Skin): negative
IHC Result ([2]; Small intestine): negative
IHC Result ([2]; Smooth muscle): negative
IHC Result ([2]; Spinal cord): negative
IHC Result ([2]; Spleen): negative
IHC Result ([2]; Stomach): negative
IHC Result ([2]; Testis): negative
IHC Result ([2]; Thymus): negative
IHC Result ([2]; Thyroid gland): negative
IHC Result ([2]; Ureter): negative
IHC Result ([2]; Uterine cervix): negative
IHC staining of melanocytic lesions [3]: homogeneous cytoplasmic and cytoplasmic membrane staining
reactivity with human melanoma cell lines (CSPG4): Broad reactivity
reactivity with human melanoma cell lines (CSPG4; listed as scFv-FcC21 (C21)): able to recognize
inhibition of melanoma cell growth in vitro [4]: Growth inhibition; also recorded: inhibited
cell growth ([1]; 1520 cells negative for CSPG4, C21 0.1 mg/mL): did not affect
survival of mice [5]: prolonging the survival
delay of resistance to vemurafenib in vitro (melanoma cells; C21 0.1 mg/mL with vemurafenib increasing 500 to 10,000 nM): up to 28 days
onset of acquired resistance to vemurafenib (melanoma cells; melanoma cell line 1520, BRAF^V600E positive, CSPG4 negative): did not delay
activation of EGFR and PDGFRα (EGFR and PDGFRα): down-regulating activation
